Source: patent US20240067714A1
pKd: −log10 of the molar value. Each block holds one substance with its values, some of them ahead of it.

Assays:
Macaque TNFα (macaque) [1] = target: Macaque TNFα (macaque) (UniProt P79337); assay: SPR, macaque TNFα, reference
FcγRI (CD64) [2] = target: FcγRI (CD64) (UniProt P12314); assay: SPR, heterogenous ligand model, Mean KD2
FcγRIIIA (CD16a, V167) [3] = target: FcγRIIIA (CD16a, V167) (UniProt P08637); assay: SPR, heterogenous ligand model, Mean KD2
FcγRIIIA (CD16a, F167) [4] = target: FcγRIIIA (CD16a, F167) (UniProt P08637); assay: SPR, heterogenous ligand model, Mean KD2
Macaque TNFα (macaque) [5] = target: Macaque TNFα (macaque) (UniProt P79337); assay: ELISA, macaque TNFα, reference
FcγRIIA (CD32a, H167) [6] = target: FcγRIIA (CD32a, H167) (UniProt P12318); assay: SPR, steady state model, Mean
FcRn (FCGRT&B2M) [7] = target: FcRn (FCGRT&B2M) (UniProt P55899); assay: SPR, steady state model, Mean
FcγRIIB (CD32b) [8] = target: FcγRIIB (CD32b) (UniProt P31994); assay: SPR, steady state model, Mean
FcγRI (CD64) [9] = target: FcγRI (CD64) (UniProt P12314); assay: SPR, heterogenous ligand model, Mean KD1
FcγRIIIA (CD16a, V167) [10] = target: FcγRIIIA (CD16a, V167) (UniProt P08637); assay: SPR, heterogenous ligand model, Mean KD1
FcγRIIIA (CD16a, F167) [11] = target: FcγRIIIA (CD16a, F167) (UniProt P08637); assay: SPR, heterogenous ligand model, Mean KD1
FcγRIIIB (CD16b) [12] = target: FcγRIIIB (CD16b) (UniProt O75015); assay: SPR, Mean (one KD printed)
FcγRI (CD64) [13] = target: FcγRI (CD64) (UniProt P12314); assay: SPR, heterogenous ligand model, KD2, against HUMIRA
FcγRIIIA (CD16a, V167) [14] = target: FcγRIIIA (CD16a, V167) (UniProt P08637); assay: as above
FcγRIIIA (CD16a, F167) [15] = target: FcγRIIIA (CD16a, F167) (UniProt P08637); assay: as above
Human TNFα (human) [16] = target: Human TNFα (human) (UniProt P01375); assay: SPR, human TNFα, relative to HUMIRA
FcγRI (CD64) [17] = target: FcγRI (CD64) (UniProt P12314); assay: SPR, heterogenous ligand model, KD1, against HUMIRA
FcγRIIIA (CD16a, V167) [18] = target: FcγRIIIA (CD16a, V167) (UniProt P08637); assay: as above
FcγRIIIA (CD16a, F167) [19] = target: FcγRIIIA (CD16a, F167) (UniProt P08637); assay: as above
Macaque TNFα (macaque) [20] = target: Macaque TNFα (macaque) (UniProt P79337); assay: SPR, macaque TNFα, relative to HUMIRA
FcγRIIA (CD32a, H167) [21] = target: FcγRIIA (CD32a, H167) (UniProt P12318); assay: SPR, steady state model, against HUMIRA
FcRn (FCGRT&B2M) [22] = target: FcRn (FCGRT&B2M) (UniProt P55899); assay: SPR, steady state model, against HUMIRA
FcγRIIB (CD32b) [23] = target: FcγRIIB (CD32b) (UniProt P31994); assay: SPR, steady state model, against HUMIRA
Macaque TNFα (macaque) [24] = target: Macaque TNFα (macaque) (UniProt P79337); assay: ELISA, macaque TNFα, relative to HUMIRA
Human TNFα (human) [25] = target: Human TNFα (human) (UniProt P01375); assay: ELISA, human TNFα, relative to HUMIRA
Human TNFα (human) [26] = target: Human TNFα (human) (UniProt P01375); assay: cell-based or functional assay
FcγRIIIB (CD16b) [27] = target: FcγRIIIB (CD16b) (UniProt O75015); assay: SPR, against HUMIRA
Human TNFα (human) [28] = target: Human TNFα (human) (UniProt P01375); assay: Binding ELISA to hTNFα

- Rel. binding affinity (Macaque TNFα (macaque) [1]): 100%
- pKd (FcγRI (CD64) [2]): 8.16
- pKd (FcγRIIIA (CD16a, V167) [3]): 7.12
- pKd (FcγRIIIA (CD16a, F167) [4]): 5.95
- Rel. binding (Macaque TNFα (macaque) [5]): 100%
- pKd (FcγRIIA (CD32a, H167) [6]): 6.14
- pKd (FcRn (FCGRT&B2M) [7]): 6.11
- pKd (FcγRIIB (CD32b) [8]): 5.52
- pKd (FcγRI (CD64) [9]): 9.25
- pKd (FcγRIIIA (CD16a, V167) [10]): 7.10
- pKd (FcγRIIIA (CD16a, F167) [11]): 6.59
- pKd (FcγRIIIB (CD16b) [12]): 5.78
Substance: HUMIRA (adalimumab) (antibody)

- Fold change (KD(HUMIRA)/KD(A-8486S)) (FcγRI (CD64) [13]): 1.1 fold
- Rel. binding affinity (KD(HUMIRA)/KD(A-8486S)*100) (FcγRI (CD64) [13]): 109%
- Fold change (KD(HUMIRA)/KD(A-8486S)) (FcγRIIIA (CD16a, V167) [14]): 2.8 fold
- Rel. binding affinity (KD(HUMIRA)/KD(A-8486S)*100) (FcγRIIIA (CD16a, V167) [14]): 280%
- Fold change (KD(HUMIRA)/KD(A-8486S)) (FcγRIIIA (CD16a, F167) [15]): 9 fold
- Rel. binding affinity (KD(HUMIRA)/KD(A-8486S)*100) (FcγRIIIA (CD16a, F167) [15]): 902%
- Rel. binding affinity (Human TNFα (human) [16]): 84%
- pKd (FcγRI (CD64) [2]): 8.20
- pKd (FcγRIIIA (CD16a, V167) [3]): 7.56
- pKd (FcγRIIIA (CD16a, F167) [4]): 6.91
- pKd (FcγRIIA (CD32a, H167) [6]): 6.11
- pKd (FcRn (FCGRT&B2M) [7]): 5.96
- pKd (FcγRIIB (CD32b) [8]): 5.66
- Fold change (KD(HUMIRA)/KD(A-8486S)) (FcγRI (CD64) [17]): 1.7 fold
- Rel. binding affinity (KD(HUMIRA)/KD(A-8486S)*100) (FcγRI (CD64) [17]): 174%
- Fold change (KD(HUMIRA)/KD(A-8486S)) (FcγRIIIA (CD16a, V167) [18]): 29.8 fold
- Rel. binding affinity (KD(HUMIRA)/KD(A-8486S)*100) (FcγRIIIA (CD16a, V167) [18]): 2980%
- Fold change (KD(HUMIRA)/KD(A-8486S)) (FcγRIIIA (CD16a, F167) [19]): 21.3 fold
- Rel. binding affinity (KD(HUMIRA)/KD(A-8486S)*100) (FcγRIIIA (CD16a, F167) [19]): 2130%
- Rel. binding affinity (Macaque TNFα (macaque) [20]): 77%
- Fold change (KD(HUMIRA)/KD(A-8486S)) (FcγRIIA (CD32a, H167) [21]): 0.9 fold
- Rel. binding affinity (KD(HUMIRA)/KD(A-8486S)*100) (FcγRIIA (CD32a, H167) [21]): 92%
- Fold change (KD(HUMIRA)/KD(A-8486S)) (FcRn (FCGRT&B2M) [22]): 0.7 fold
- Rel. binding affinity (KD(HUMIRA)/KD(A-8486S)*100) (FcRn (FCGRT&B2M) [22]): 71%
- Fold change (KD(HUMIRA)/KD(A-8486S)) (FcγRIIB (CD32b) [23]): 1.4 fold
- Rel. binding affinity (KD(HUMIRA)/KD(A-8486S)*100) (FcγRIIB (CD32b) [23]): 138%
- Rel. binding (Macaque TNFα (macaque) [24]): 99%
- pKd (FcγRI (CD64) [9]): 9.49
- pKd (FcγRIIIA (CD16a, V167) [10]): 8.57
- pKd (FcγRIIIA (CD16a, F167) [11]): 7.91
- pKd (FcγRIIIB (CD16b) [12]): 6.82
- Rel. binding (Human TNFα (human) [25]): 86%
- L929 apoptosis, Rel. IC50 (Human TNFα (human) [26]): 89%
- Fold change (KD(HUMIRA)/KD(A-8486S)) (FcγRIIIB (CD16b) [27]): 10.9 fold
- Rel. binding affinity (KD(HUMIRA)/KD(A-8486S)*100) (FcγRIIIB (CD16b) [27]): 1090%
- Normalized EC50 vs HUMIRA (Human TNFα (human) [28]): 116%
Substance: Adalimumab K84N-D86N (A-8486S) (antibody)

- Normalized EC50 vs HUMIRA (Human TNFα (human) [28]): 121%
Substance: Adalimumab K84N (A-84S) (antibody)
